± gives the standard deviation of the averaged measurements.
These sequences were tested on Saccharomyces cerevisiae (assay: protein stability index of tFT-peptide fusion (C-terminal peptide) (PSI (0-1 scale)); higher = more stable (slower turnover)). Settings: genetic background: wild type; temperature: 30 C.
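Also: PSI is a weighted mean of sequencing reads over stability bins, variants kept only with over 10 reads, mCherry proximal and sfGFP distal, peptide attached via GGGS linker.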

Sequence | protein stability index
SGSFQGNVRVPC | 0.676 ± 0.017
SGSRFRTVRAPE | 0.654 ± 0.032
SGSRRTSRVGSR | 0.721 ± 0.0087
SGSRWYYSLGRG | 0.709 ± 0.043
SGSSLCSVGWLV | 0.718 ± 0.044
SGSWRFYPSTTC | 0.706 ± 0.056
SGTRDELVFVAV | 0.6755 ± 0.0061
SGVEGTRQGSVS | 0.711 ± 0.068
SGVLKHLRKESS | 0.641 ± 0.018
SGVRSPALLGRC | 0.68 ± 0.042
SHGELLLGPVFL | 0.748 ± 0.009
SHGQAPFNVLVA | 0.596 ± 0.025
SHHKAFFDLVFM | 0.7578 ± 0.0051
SHLFPCRSSFPP | 0.656 ± 0.037
SHLGPYPAPARP | 0.7185 ± 0.006
SHLKEHREEELE | 0.647 ± 0.0097
SHLSTLSHPPPP | 0.637 ± 0.043
SHRLPPPPPPPS | 0.758 ± 0.14
SHSHMRRLKMYR | 0.717 ± 0.089
SHTAWEQRVPKQ | 0.729 ± 0.02
SHVPLAKLSLFP | 0.756 ± 0.024
SIDGFAFCVGGV | 0.737 ± 0.058
SIKKFRTRKRRR | 0.67 ± 0.12

Sequence | protein stability index
SIRHPYEFFARS | 0.738 ± 0.031
SIRLGGSVVELV | 0.694 ± 0.041
SISIGVRHSRPP | 0.609 ± 0.033
SISLSLSQSDRR | 0.614 ± 0.016
SKEKKRPDNKTF | 0.71 ± 0.048
SKKKRQNQLIKM | 0.7527 ± 0.0032
SKKKTKKRRKKN | 0.698 ± 0.023
SKNEFKKIMKKY | 0.711 ± 0.083
SKSNIAGIRKEL | 0.6774 ± 0.0063
SKSRGVIVTVMV | 0.5681 ± 0.00072
SLAPPVILPSHP | 0.659 ± 0.041
SLATFRTLLPES | 0.667 ± 0.019
SLAVAPHIATQQ | 0.701 ± 0.011
SLAVDVRVSWEI | 0.704 ± 0.017
SLCPRVCSERVP | 0.722 ± 0.031
SLCWDVLFLPVV | 0.736 ± 0.064
SLELWPGAKGAP | 0.702 ± 0.1
SLFFFNFPLCAL | 0.559 ± 0.019
SLFGMACDGGLP | 0.6873 ± 0.0043
SLFLFCLRCLQF | 0.576 ± 0.037
SLFPSEPRPPSL | 0.719 ± 0.03
SLGAPPAVVSSY | 0.6822 ± 0.0033
SLHSPPHPPPHA | 0.673 ± 0.011

Sequence | protein stability index
SLLHSIPSSPPF | 0.729 ± 0.041
SLLLPLFLPPSL | 0.723 ± 0.0086
SLLLPPPPPSPH | 0.731 ± 0.042
SLLPAPTPCPPP | 0.701 ± 0.033
SLLPGGHRWAGI | 0.659 ± 0.025
SLLRSPSLPQSN | 0.634 ± 0.095
SLLSSPFPCLRQ | 0.766 ± 0.087
SLLYIQDFVSGV | 0.683 ± 0.019
SLMLDGRSTKAA | 0.6912 ± 0.0035
SLMRRFRGQWRV | 0.71 ± 0.06
SLPCLFPPPLLP | 0.726 ± 0.045
SLPPDPPSSYSP | 0.632 ± 0.044
SLPPPAAPLPFP | 0.7346 ± 0.00096
SLPPPPSQLRPL | 0.726 ± 0.015
SLPPPSPSPSLS | 0.649 ± 0.034
SLPPTLPPRSCP | 0.6211 ± 0.0019
SLPQAPLRPAPS | 0.656 ± 0.046
SLPRSHRRGPVP | 0.663 ± 0.014
SLPSWPPAPLPG | 0.703 ± 0.025
SLPVLSSRTSIQ | 0.687 ± 0.012
SLPVSSPIRILF | 0.6326 ± 0.0015
SLQAYASALIHV | 0.687 ± 0.0098
SLRKVTEKDKRT | 0.677 ± 0.064

Sequence | protein stability index
SLRRLSPLPLAS | 0.7 ± 0.04
SLSEEWAHIGGL | 0.643 ± 0.0072
SLSERPKFSIYV | 0.656 ± 0.049
SLSGSPIPFIRL | 0.764 ± 0.072
SLSIAPAPLDFP | 0.655 ± 0.084
SLSLFPPRRLLP | 0.734 ± 0.088
SLSSTVPRFCEV | 0.6241 ± 0.0028
SLSVPTTLFLFS | 0.7 ± 0.017
SLTLVCRKYILL | 0.633 ± 0.024
SLVAALHRPTFV | 0.679 ± 0.034
SLVCCGPVWVFL | 0.573 ± 0.022
SLVLLSACRFGF | 0.654 ± 0.073
SLVPFSPPRSPP | 0.689 ± 0.083
SLVVFGFGGYLL | 0.686 ± 0.021
SLWPLFVDVVCL | 0.498 ± 0.042
SMCAFRPFPFSS | 0.70891 ± 0.00011
SMCSVAGVWWLG | 0.728 ± 0.062
SMDISYLISFQR | 0.7426 ± 0.0049
SMYHSCTFRTTV | 0.586 ± 0.021
SMYLPSSSDVLS | 0.736 ± 0.014
SNGTRGSKLPAI | 0.685 ± 0.055
SNIGFLLCSLFL | 0.59078 ± 4.5e-05
SNLYNSENVPVD | 0.709 ± 0.041

Sequence | protein stability index
SPAARPLFRTIS | 0.61 ± 0.054
SPAPPSQFPSFA | 0.818 ± 0.11
SPCPLTVAPIIP | 0.644 ± 0.056
SPCTPSRLQPSS | 0.65 ± 0.027
SPDHATYHNPAR | 0.76 ± 0.074
SPFPAPCVFPSR | 0.761 ± 0.1
SPGARRRGGAGR | 0.659 ± 0.047
SPIHSLNYASSC | 0.7217 ± 0.0015
SPLAPLPPPPLT | 0.884 ± 0.1
SPLDEYIDSVPA | 0.726 ± 0.017
SPLLLLPAPPPP | 0.673 ± 0.014
SPLLPPRSPPLP | 0.752 ± 0.032
SPLLVLTPLFPP | 0.651 ± 0.074
SPLPHPSPPPSP | 0.662 ± 0.016
SPLPPPRSSSPP | 0.76 ± 0.14
SPLPPPSHALLP | 0.712 ± 0.089
SPLPRSLPPLPP | 0.654 ± 0.019
SPLSLPPPHPPP | 0.654 ± 0.0069
SPNAPMPPRPRH | 0.594 ± 0.033
SPPICLPLFRVR | 0.65 ± 0.017
SPPLCAPPHPPA | 0.679 ± 0.04
SPPLLHLSNSRH | 0.654 ± 0.059
SPPLNSFPPTPP | 0.62 ± 0.068

Sequence | protein stability index
SPPLPPLPLLQL | 0.696 ± 0.021
SPPLRSRSGSFL | 0.699 ± 0.062
SPPLTSPPPAPP | 0.7 ± 0.017
SPPPALPPSSPS | 0.657 ± 0.025
SPPPAPPRSGPL | 0.651 ± 0.051
SPPPGPAPPMSP | 0.731 ± 0.03
SPPPHPPAAPDS | 0.6626 ± 0.0058
SPPPLPPSPLSS | 0.701 ± 0.046
SPPPLPPVRPPV | 0.722 ± 0.033
SPPPMSPLLRPA | 0.653 ± 0.033
SPPPPLELIPSP | 0.534 ± 0.025
SPPPPSRLPPPP | 0.748 ± 0.096
SPPRPPPPSPPF | 0.768 ± 0.015
SPPRPPPVPPPP | 0.617 ± 0.054
SPPRSSRTHAPP | 0.7108 ± 0.006
SPPSLRLPPPPA | 0.772 ± 0.021
SPPSLYRRVRPS | 0.63 ± 0.084
SPPSRASFPPPS | 0.682 ± 0.022
SPRLPPPPPLPP | 0.651 ± 0.11
SPRLPPSTHSPP | 0.677 ± 0.15
SPRLSSCPPAGF | 0.749 ± 0.017
SPRPLFPPHRPT | 0.651 ± 0.044
SPRPPLLLPVTV | 0.53 ± 0.26

Sequence | protein stability index
SPRRFVVVSGQG | 0.643 ± 0.012
SPRRSPLLLLPL | 0.723 ± 0.064
SPRSATAPPPLP | 0.71 ± 0.028
SPSFSLLFPFLL | 0.657 ± 0.037
SPSPLSLRLPPP | 0.632 ± 0.028
SPSPPLPSRLIL | 0.673 ± 0.026
SPSRPRPPPHAP | 0.7624 ± 0.00086
SPSSFLLSPPIP | 0.764 ± 0.071
SPSTPPPPSPPV | 0.647 ± 0.017
SPTALPPPPVPP | 0.662 ± 0.041
SPTLSPPPPLAL | 0.667 ± 0.031
SPTRMSAFVRLD | 0.739 ± 0.071
SPTSPAPPPNAS | 0.67 ± 0.0092
SPWERTEMTFPR | 0.822 ± 0.18
SPYVGVALGGVW | 0.704 ± 0.012
SQVRYIANRKDG | 0.635 ± 0.091
SREEWQSSKLRD | 0.784 ± 0.089
SREYKRRTPSSK | 0.718 ± 0.03
SRFEPLSCEQCS | 0.66 ± 0.05
SRFFFSPRLCVP | 0.604 ± 0.033
SRFKTVDCWKVW | 0.697 ± 0.097
SRFLTPLPLAMF | 0.592 ± 0.018

— the supplement of paper PMC10724198
